Results taken from US20240132575A1 (MEMO THERAPEUTICS, published 2024).
Read-outs that look alike come from different tables or passages of the source.

Key:
[1] = target: T1, BKV serotype Ia VP1 on BK pseudovirus (VP1-Ia) (BK virus serotype Ia, UniProt P03088 1-362); assay: cell-based or functional assay
T1 chain: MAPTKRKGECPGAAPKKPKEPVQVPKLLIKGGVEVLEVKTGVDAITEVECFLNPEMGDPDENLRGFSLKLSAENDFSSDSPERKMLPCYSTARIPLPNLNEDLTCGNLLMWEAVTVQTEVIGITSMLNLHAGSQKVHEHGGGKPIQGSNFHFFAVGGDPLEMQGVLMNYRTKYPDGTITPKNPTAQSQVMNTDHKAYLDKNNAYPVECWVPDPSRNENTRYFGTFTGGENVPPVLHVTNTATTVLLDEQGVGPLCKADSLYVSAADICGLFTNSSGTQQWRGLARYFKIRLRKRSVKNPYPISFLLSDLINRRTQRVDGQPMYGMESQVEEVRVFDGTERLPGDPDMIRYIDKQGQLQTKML

[2] = target: T2, BKV serotype III VP1 on BK pseudovirus (VP1-III) (BK virus serotype III, UniProt P14996 1-362); assay: cell-based or functional assay
T2 sequence: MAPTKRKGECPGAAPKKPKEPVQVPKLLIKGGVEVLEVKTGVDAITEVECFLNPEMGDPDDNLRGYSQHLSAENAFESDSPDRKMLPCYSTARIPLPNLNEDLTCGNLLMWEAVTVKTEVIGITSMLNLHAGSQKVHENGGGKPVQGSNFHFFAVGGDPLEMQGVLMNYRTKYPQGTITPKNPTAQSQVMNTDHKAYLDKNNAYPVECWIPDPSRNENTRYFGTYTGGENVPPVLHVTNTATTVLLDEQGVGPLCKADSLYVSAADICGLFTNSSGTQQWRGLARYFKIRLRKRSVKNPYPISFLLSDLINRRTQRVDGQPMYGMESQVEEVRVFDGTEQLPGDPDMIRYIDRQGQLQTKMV

[3] = target: T3, BKV serotype IV VP1 on BK pseudovirus (VP1-IVc) (BK virus serotype IV, UniProt P14996 1-362); assay: cell-based or functional assay
T3 chain: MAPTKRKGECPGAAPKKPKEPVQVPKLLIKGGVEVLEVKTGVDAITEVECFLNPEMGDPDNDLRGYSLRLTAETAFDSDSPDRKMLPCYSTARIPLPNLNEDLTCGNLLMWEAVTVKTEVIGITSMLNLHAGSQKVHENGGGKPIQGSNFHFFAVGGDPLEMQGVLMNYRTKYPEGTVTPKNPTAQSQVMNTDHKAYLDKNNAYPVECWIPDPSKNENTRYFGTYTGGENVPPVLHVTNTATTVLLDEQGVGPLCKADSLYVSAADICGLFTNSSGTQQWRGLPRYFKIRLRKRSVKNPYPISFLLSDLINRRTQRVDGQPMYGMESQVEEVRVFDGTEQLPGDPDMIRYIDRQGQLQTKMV

[4] = target: T4, BKV serotype Ib VP1 on BK pseudovirus (VP1-Ib) (BK virus serotype Ib, UniProt P03088 1-362); assay: cell-based or functional assay
T4 chain: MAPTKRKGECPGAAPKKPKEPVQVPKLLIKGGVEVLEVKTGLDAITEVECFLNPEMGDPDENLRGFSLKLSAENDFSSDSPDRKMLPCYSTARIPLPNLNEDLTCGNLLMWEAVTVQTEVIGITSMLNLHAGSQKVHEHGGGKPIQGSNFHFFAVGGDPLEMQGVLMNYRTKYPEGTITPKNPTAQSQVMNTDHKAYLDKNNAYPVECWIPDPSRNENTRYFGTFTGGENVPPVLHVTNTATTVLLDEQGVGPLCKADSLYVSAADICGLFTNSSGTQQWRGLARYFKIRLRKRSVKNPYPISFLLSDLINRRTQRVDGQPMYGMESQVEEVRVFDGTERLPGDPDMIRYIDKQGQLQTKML

[5] = target: T5, BKV serotype II VP1 on BK pseudovirus (VP1-II) (BK virus serotype II, UniProt P14996 1-362); assay: cell-based or functional assay
T5 chain: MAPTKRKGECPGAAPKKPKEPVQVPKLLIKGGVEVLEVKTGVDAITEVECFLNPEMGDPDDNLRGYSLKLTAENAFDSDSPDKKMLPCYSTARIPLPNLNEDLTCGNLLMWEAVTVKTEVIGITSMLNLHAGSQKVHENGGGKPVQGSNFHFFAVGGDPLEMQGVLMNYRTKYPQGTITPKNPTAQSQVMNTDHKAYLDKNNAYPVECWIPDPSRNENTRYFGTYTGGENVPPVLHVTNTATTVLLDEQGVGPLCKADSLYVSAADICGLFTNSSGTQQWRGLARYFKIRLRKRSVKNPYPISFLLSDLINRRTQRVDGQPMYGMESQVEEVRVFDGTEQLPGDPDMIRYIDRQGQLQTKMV

[6] = target: T6, BKV serotype III VP1 pentamer (VP1-III) (BK virus serotype III, UniProt P14996 31-300); assay: ELISA, VP1 pentamer coated, IgG titrated (EC50E)
T6 construct: also called BKV-VP1 serotype III
T6 sequence: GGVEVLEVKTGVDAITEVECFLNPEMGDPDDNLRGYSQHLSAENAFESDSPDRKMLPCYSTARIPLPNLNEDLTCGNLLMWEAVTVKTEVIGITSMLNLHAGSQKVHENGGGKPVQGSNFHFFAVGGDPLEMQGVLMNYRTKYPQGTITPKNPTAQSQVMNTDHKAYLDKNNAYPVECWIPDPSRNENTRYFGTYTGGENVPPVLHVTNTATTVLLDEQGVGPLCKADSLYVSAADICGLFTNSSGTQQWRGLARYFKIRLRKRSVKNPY
Protocol: (§1) The binding of anti-BK virus antibodies to BKV-VP1 pentamers was analyzed by ELISA. […] Antibodies were serially diluted in PBS with 0.5% skim milk powder and added to the antigen-coated plates for 1.5 h. […] Plates were washed three times with PBS containing 0.05% Tween 20. The reaction was developed using 30 μl/well TMB liquid substrate (Sigma-Aldrich, #T0440) and stopped with 15 μl/well H₂SO₄. […] Data were fitted and apparent EC50 ELISA values (EC50E) were determined by three-parameter analysis in GraphPad Prism (GraphPad Software).

[7] = target: T7, BKV serotype II VP1 pentamer (VP1-II) (BK virus serotype II, UniProt P14996 31-300); assay: ELISA, VP1 pentamer coated, IgG titrated (EC50E)
T7 construct: VP1 pentamer construct; also called BKV-VP1 serotype II
T7 chain: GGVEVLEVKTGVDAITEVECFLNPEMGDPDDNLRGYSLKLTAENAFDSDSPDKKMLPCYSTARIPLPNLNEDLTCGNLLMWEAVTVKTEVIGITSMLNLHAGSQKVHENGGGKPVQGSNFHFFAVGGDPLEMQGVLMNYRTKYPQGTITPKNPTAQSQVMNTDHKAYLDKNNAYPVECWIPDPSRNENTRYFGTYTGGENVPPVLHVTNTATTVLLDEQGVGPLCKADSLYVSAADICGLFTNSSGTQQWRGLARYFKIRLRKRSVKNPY
Protocol: as §1

[8] = target: T8, BKV serotype IV VP1 pentamer (VP1-IV) (BK virus serotype IV, UniProt P14996 31-300); assay: ELISA, VP1 pentamer coated, IgG titrated (EC50E)
T8 construct: also called BKV-VP1 serotype IV
T8 chain: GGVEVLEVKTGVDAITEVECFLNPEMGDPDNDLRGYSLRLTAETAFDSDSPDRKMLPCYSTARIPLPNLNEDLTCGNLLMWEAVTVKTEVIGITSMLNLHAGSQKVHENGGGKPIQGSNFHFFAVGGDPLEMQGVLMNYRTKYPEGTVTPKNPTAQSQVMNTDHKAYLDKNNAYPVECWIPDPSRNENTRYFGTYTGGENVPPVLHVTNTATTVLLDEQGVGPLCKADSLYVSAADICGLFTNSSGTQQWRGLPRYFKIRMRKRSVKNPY
Protocol: as §1

JCV VP1 pentamer = target: T9, JCV VP1 pentamer (JC virus, UniProt P03089 23-292); assay: ELISA on coated JCV-VP1 pentamer
T9 construct: also called JC-VP1; VP1 of the JC virus

[9] = target: T1, BKV serotype Ia VP1 on BK pseudovirus …; assay: cell-based or functional assay
[10] = target: T2, BKV serotype III VP1 on BK pseudovirus …; assay: cell-based or functional assay; remark: listed apart in the source
[11] = target: T3, BKV serotype IV VP1 on BK pseudovirus …; assay: cell-based or functional assay
[12] = target: T4, BKV serotype Ib VP1 on BK pseudovirus …; assay: cell-based or functional assay
[13] = target: T5, BKV serotype II VP1 on BK pseudovirus …; assay: cell-based or functional assay
[14] = target: T10, BKV serotype I VP1 pentamer (VP1-I) (BK virus serotype I, UniProt P03088 31-300); assay: ELISA, VP1 pentamer coated, IgG titrated (EC50E)
T10 construct: also called BKV-VP1 serotype I
T10 chain: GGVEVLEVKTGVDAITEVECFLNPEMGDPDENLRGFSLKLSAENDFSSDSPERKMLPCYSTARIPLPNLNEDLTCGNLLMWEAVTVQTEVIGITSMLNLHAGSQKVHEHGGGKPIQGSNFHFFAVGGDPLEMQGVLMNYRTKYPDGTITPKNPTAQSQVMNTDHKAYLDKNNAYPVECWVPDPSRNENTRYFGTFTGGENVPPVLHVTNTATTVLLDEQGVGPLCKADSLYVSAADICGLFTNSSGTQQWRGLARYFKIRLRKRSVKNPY
Protocol: as §1

[15] = target: T6, BKV serotype III VP1 pentamer (VP1-III); assay: ELISA, VP1 pentamer coated, IgG titrated (EC50E); remark: listed apart in the source
Protocol: as §1

[16] = target: T7, BKV serotype II VP1 pentamer (VP1-II); assay: ELISA, VP1 pentamer coated, IgG titrated (EC50E)
Protocol: as §1

T9 sequence (P03089 23-292 limits assumed): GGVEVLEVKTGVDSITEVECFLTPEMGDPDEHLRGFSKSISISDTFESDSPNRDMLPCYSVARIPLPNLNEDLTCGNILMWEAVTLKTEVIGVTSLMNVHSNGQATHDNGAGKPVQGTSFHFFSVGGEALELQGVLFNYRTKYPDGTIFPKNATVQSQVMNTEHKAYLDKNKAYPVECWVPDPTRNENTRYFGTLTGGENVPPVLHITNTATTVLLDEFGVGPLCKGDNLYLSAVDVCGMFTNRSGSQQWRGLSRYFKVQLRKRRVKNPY

B1: antibody 336F07 (antibody, human IgG1, kappa, V domains shown)
VH: EEPLLESGGGLVQPGGSLRLSCAASGFTFRLYAMNWVRQAPGKGLEWVSLISGSGTATYYADSVTGRFSISRDNYKNRVYLQMDSLRADDTATYYCAKTYPTWGGVVIGAIDVWGQGTTVTVSS
VL: DIQMTQSPSTLSASVGDRVTITCRASQSIQRWLAWHQQKPGRAPKVLIHDASTLESGVPSRFSGSGSGTEFTLTISSLQPDDFATYYCQQYNGHASTFGPGTKVDIKR
notes: also called 336FC07
IC50 (nM), neutralization of BK-Pseudovirus (NanoLuc luciferase, 293TT cells) [1]: 0.094 nM
IC50 (nM), neutralization of BK-Pseudovirus (NanoLuc luciferase, 293TT cells) [2]: 0.019 nM
IC50 (nM), neutralization of BK-Pseudovirus (NanoLuc luciferase, 293TT cells) [3]: 0.018 nM
IC50 (nM), neutralization of BK-Pseudovirus (NanoLuc luciferase, 293TT cells) [4]: 0.103 nM
IC50 (nM), neutralization of BK-Pseudovirus (NanoLuc luciferase, 293TT cells) [5]: 0.02 nM
EC50 [6]: 0.02 nM
EC50 [7]: 0.03 nM
EC50 [8]: 0.03 nM
binding result (JCV VP1 pentamer): no binding

B2: comparative antibody P8D11 (WO 2017/046676) (antibody, human IgG1, lambda, V domains shown)
VH: QVQLVESGGTLVQPGGSLRLSCAASGFTFNNYWMTWVRQAPGKGLEWVANIKKDGSEKYYVDSVRGRFTISRDNAKNSLFLQMNSLRPEDTAVYFCATVRSGRYFALDDWGQGTLVTVSS
VL: QSVLTQPPSVSVAPGKTARITCGGDNIGSRPVHWYQQKPGQAPILVVYDDSNRPSGIPERFSGSNSGNTATLTISRVEAGDEADYYCQVWSSSTDHPFGGGTKVTVLG
notes: also called BM2
IC50 (nM), neutralization of BK-Pseudovirus (NanoLuc luciferase, 293TT cells) [1]: 0.391 nM
IC50 (nM), neutralization of BK-Pseudovirus (NanoLuc luciferase, 293TT cells) [2]: 0.176 nM
IC50 (nM), neutralization of BK-Pseudovirus (NanoLuc luciferase, 293TT cells) [3]: 2.91 nM
IC50 (nM), neutralization of BK-Pseudovirus (NanoLuc luciferase, 293TT cells) [4]: 0.392 nM
IC50 (nM), neutralization of BK-Pseudovirus (NanoLuc luciferase, 293TT cells) [5]: 0.565 nM
IC50 (nM), neutralization of BK-Pseudovirus (NanoLuc luciferase, 293TT cells) [9]: 0.391 nM
IC50 (nM), neutralization of BK-Pseudovirus (NanoLuc luciferase, 293TT cells) [10]: 0.176 nM
IC50 (nM), neutralization of BK-Pseudovirus (NanoLuc luciferase, 293TT cells) [11]: 2.91 nM
IC50 (nM), neutralization of BK-Pseudovirus (NanoLuc luciferase, 293TT cells) [12]: 0.392 nM
IC50 (nM), neutralization of BK-Pseudovirus (NanoLuc luciferase, 293TT cells) [13]: 0.565 nM
binding result (JCV VP1 pentamer): binds

B3: antibody 319C07 (antibody, human IgG1, kappa, V domains shown)
VH: QVQLQQWGAGLLKPSETLSLTCAVYRGSFSAYYWTWFRQPPGKGLEWIGEINHRGYTNYNPSLRGRVSISVDTSKKQFSLKLRSVNAADTAVYYCATLRSTSGWHDYFDYWGQGTLVTVSS
VL: EIVLTQSPGTLSLSPGERATLSCRASQSVSSSYLAWYQQTPGQAPRLLIYGASSRATGIPDRFSGSGSGTDFTLTISRLEPEDFVVYFCLQYGSSPLTFGPGTKVDIKR
notes: also called 319C7
EC50 [14]: 0.05 nM
EC50 [15]: 0.06 nM
EC50 [16]: 0.06 nM
IC50 (nM), neutralization of BK-Pseudovirus (NanoLuc luciferase, 293TT cells) [9]: 0.007 nM
IC50 (nM), neutralization of BK-Pseudovirus (NanoLuc luciferase, 293TT cells) [10]: 0.058 nM
IC50 (nM), neutralization of BK-Pseudovirus (NanoLuc luciferase, 293TT cells) [11]: 0.032 nM
IC50 (nM), neutralization of BK-Pseudovirus (NanoLuc luciferase, 293TT cells) [12]: 0.007 nM
IC50 (nM), neutralization of BK-Pseudovirus (NanoLuc luciferase, 293TT cells) [13]: 0.01 nM
binding result (JCV VP1 pentamer): no binding
